Experimental data from patent WO2021212049A2.

Target: recombinant SARS-CoV-2 S protein ectodomain (residues 14-1211), 2P, furin site mutated, foldon, 8XHis (SARS-CoV-2) (UniProt P0DTC2)
Experiment: ELISA on coated antigen, anti-human IgG-HRP

Substance: mAb 2B04 (antibody)
- minimum positive concentration: < 5 µg/mL
